Assay results reported in US20190048094A1.

Key:
[1] = biological target: SIINFEKL-specific TCR on CD8+ T-cells of OT-I transgenic mice; test: flow cytometry, dextramer staining of OT-I activated CD8+ T-cells
[2] = biological target: OVA peptide SIINFEKL-MHC complex (OVA257-264 presented in the context of MHC class I H-2K^b) on tumor cells (chicken); test: cell-based or functional assay

Substance: H-2 Kb SIINFEKL-APC conjugated dextramer (Immudex) (from UniProt P01901 22-369) (peptide-MHC)
- percent of cells positive [1]: 100%

Substance: T-cell receptor (TCR) of the T-cell hybridoma B3Z86/90.14 (B3Z)
- IL-2 (pg/ml) from B3Z T-cells; B16F10 tumor cells, OVA 0.25 mg/ml [2]: 22 pg/mL
- IL-2 (pg/ml) from B3Z T-cells; B16F10 tumor cells, OVA 0.5 mg/ml [2]: 76 pg/mL
- IL-2 (pg/ml) from B3Z T-cells; B16F10 tumor cells, OVA 1.0 mg/ml [2]: 323 pg/mL
- IL-2 (pg/ml) from B3Z T-cells; B16F10 tumor cells, OVA 2.5 mg/ml [2]: 589 pg/mL
- IL-2 (pg/ml) from B3Z T-cells; KP LUN31 tumor cells, OVA 0.125 mg/ml [2]: 22 pg/mL
- IL-2 (pg/ml) from B3Z T-cells; KP LUN31 tumor cells, OVA 0.25 mg/ml [2]: 68 pg/mL
- IL-2 (pg/ml) from B3Z T-cells; KP LUN31 tumor cells, OVA 0.5 mg/ml [2]: 247 pg/mL
- IL-2 (pg/ml) from B3Z T-cells; KP LUN31 tumor cells, OVA 1.0 mg/ml [2]: 483 pg/mL
- IL-2 (pg/ml) from B3Z T-cells; KP LUN31 tumor cells, OVA 2.5 mg/ml [2]: 913 pg/mL
- IL-2 (pg/ml) from B3Z T-cells; LL2 tumor cells, OVA 2.5 mg/ml [2]: 11 pg/mL
- IL-2 (pg/ml) from B3Z T-cells; LL2 tumor cells, OVA 5.0 mg/ml [2]: 26 pg/mL
- IL-2 (pg/ml) from B3Z T-cells; LL2 tumor cells, OVA 10 mg/ml [2]: 33 pg/mL
- IL-2 (pg/ml) from B3Z T-cells; MC38 tumor cells, OVA 2.5 mg/ml [2]: 54 pg/mL
- IL-2 (pg/ml) from B3Z T-cells; MC38 tumor cells, OVA 5.0 mg/ml [2]: 138 pg/mL
- IL-2 (pg/ml) from B3Z T-cells; MC38 tumor cells, OVA 10 mg/ml [2]: 338 pg/mL
